Laboratory results: patent publication US6468985B1, “Retinoblastoma protein-interacting zinc finger proteins” (The Burnham Institute, priority 1994, dated 2002)

Legend:
[1] = biological target: T1, p56EERb (Homo sapiens, UniProt P06400); assay: cDNA expression library filter screening with p56EERb, binding-specificity control; conditions: p56EERb preincubated with 5 μM poly-L-lysine or 50 μM T- or K-peptide
T1 construct: p56 Rb: 56 kD fragment of Rb from a.a. position 379-928; made in house; host or cells: E. coli BL21(DE3)pLysS
T1 sequence (P06400 379-928): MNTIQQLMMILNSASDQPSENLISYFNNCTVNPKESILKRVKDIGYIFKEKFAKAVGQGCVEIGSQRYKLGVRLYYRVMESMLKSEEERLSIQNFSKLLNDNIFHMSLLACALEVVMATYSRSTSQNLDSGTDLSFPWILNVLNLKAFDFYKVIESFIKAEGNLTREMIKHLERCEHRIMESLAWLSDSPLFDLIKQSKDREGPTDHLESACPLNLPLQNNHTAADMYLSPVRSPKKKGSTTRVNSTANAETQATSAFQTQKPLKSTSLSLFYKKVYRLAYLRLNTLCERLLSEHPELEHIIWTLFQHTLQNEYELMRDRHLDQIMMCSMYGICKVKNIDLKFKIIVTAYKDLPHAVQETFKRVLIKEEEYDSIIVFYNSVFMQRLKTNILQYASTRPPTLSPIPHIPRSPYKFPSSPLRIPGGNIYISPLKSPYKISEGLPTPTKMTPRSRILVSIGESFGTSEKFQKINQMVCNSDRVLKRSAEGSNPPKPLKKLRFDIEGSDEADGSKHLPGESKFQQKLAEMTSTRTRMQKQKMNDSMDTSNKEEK
Description: A rat RIZ cDNA was obtained from a rat neonatal cardiac myocyte λgt11 cDNA expression library (Zhu et al., Mol. Cell Biol., 13:4432 (1993), which is incorporated herein by reference). The library was screened using a 56 kD fragment containing the pocket binding site of Rb and the EE epitope (p56EERb) according to previously described methods (Macgregor et al., Oncogene, 5:451-458 (1991), which is incorporated herein by reference).
For binding-specificity control, p56EERb was preincubated with 5 μM poly-L-lysine (Sigma) or 50 μM T- or K-peptide (Huang et al., supra, 1991) before applying onto filters. T peptide is an 18 residue synthetic peptide derived from residues 101-118 of SV40 large T antigen, while K peptide is the same as T peptide except for a lysine residue substituted for a glutamic acid residue at position 107 of SV40 large T antigen (Huang et al., supra, 1991).
The binding of p56EERb to a clone expressing a RIZ protein was detected using an anti-EE monoclonal antibody obtained as spent culture medium of the anti-EE hybridoma (Walter, supra, 1986) and an alkaline phosphatase conjugated goat anti-mouse IgG antibody specific for mouse immunoglobulin (Promega; Madison Wis.).

[2] = biological target: T2, RIZ (Rattus norvegicus, UniProt Q63755); assay: binding of anti-RIZ antiserum / anti-ce1 antibody to RIZ and RIZ truncation mutants
T2 construct: made in house; host or cells: in vitro transcription/translation (rabbit reticulocyte lysate)
T2 sequence (Q63755 1-318): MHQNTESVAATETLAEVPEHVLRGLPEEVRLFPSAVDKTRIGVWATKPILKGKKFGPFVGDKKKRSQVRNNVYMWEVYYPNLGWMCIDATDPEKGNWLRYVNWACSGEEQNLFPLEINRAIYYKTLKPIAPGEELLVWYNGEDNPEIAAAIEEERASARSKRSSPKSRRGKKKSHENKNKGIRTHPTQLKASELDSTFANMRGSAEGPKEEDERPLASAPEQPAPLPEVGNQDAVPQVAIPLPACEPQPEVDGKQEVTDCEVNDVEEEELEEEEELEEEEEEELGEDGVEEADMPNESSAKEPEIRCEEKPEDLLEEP
Description: Anti-RIZ antibodies purified from the E1A affinity column were tested for binding to RIZ and E1A. […] The E1A-affinity purified RIZ antibodies were designated “anti-ce1” for cross reacting E1A antigen.
Anti-ce1 antibodies were tested for binding to various deletion mutants of RIZ and E1A 12S in order to map the location of the ce1 epitope on each molecule.
To evaluate this possibility, an 11 amino acid peptide encompassing residues 310-320 in RIZ (ce1 peptide) [sequence] (SEQ ID NO: 7) and an overlapping 11 amino acid control peptide encompassing residues 304-314 containing the cr2 core motif of RIZ, peptide [sequence] (SEQ ID NO: 6), were synthesized by solid phase peptide synthesis and tested for their ability to block binding between anti-ce1 antibody and RIZ or E1A.

[3] = biological target: E1A 12S (Human adenovirus C serotype 5, UniProt P03255)
Chain of E1A 12S (P03255 1-139, added parts left off): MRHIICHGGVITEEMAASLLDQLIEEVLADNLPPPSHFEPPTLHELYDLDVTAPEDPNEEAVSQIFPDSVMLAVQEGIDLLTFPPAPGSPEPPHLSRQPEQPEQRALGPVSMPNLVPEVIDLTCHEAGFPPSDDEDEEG
Description: To investigate this relationship further, the anti-RIZ antiserum raised against the GST-RIZ (245-573) fusion protein containing the cr2, ce1 and part of the cr1 motifs, was tested for cross reactivity with E1A. For these experiments, E1A was labeled with ^35S-methionine during in vitro transcription/translation using methods described above.
To further verify binding between anti-RIZ and E1A, the cross reactive antibodies from the anti-RIZ antiserum were purified by affinity chromatography on a column containing E1A 12S protein.
E1A 12S, truncated at residue 223 (E1A223) was produced by generating a PCR fragment of E1A using an upstream SP6 primer (Stratagene) a downstream E1A primer 5′-[sequence] […] The resulting PCR fragment was cloned into pCRSK+, which was used to direct the synthesis of the mutant E1A 12S protein by SP6 in vitro transcription/translation. The full length E1A 12S (E1A243) was produced from vector pGEM1Ad5E1A12S by in vitro transcription/translation as described above for the other vectors.
The regions of RIZ and E1A 12S that contain the ce1 epitope show significant amino acid sequence homology (FIG. 2A). The sequence ^312EDLLEE (SEQ ID NO: 20) in RIZ and the sequence ^224EDLLNE (SEQ ID NO: 21) in E1A are likely sites for the ce1 epitope. To evaluate this possibility, an 11 amino acid peptide encompassing residues 310-320 in RIZ (ce1 peptide) [sequence] […]

[4] = biological target: 35S-labeled full length RIZ (rat, UniProt Q63755 1-1706, 35S label); assay: GST fusion protein with in vitro translated labeled protein
[5] = biological target: T3, hypophosphorylated Rb (pRb) from HT1080 cell extract (UniProt P06400 2-928, hypophosphorylated form); assay: glutathione-agarose pull-down from HT1080 cell extract with 4 ug GST-RIZ; anti-Rb immunoblot
T3 construct: Endogenous protein in a cell lysate; also called Rb from HT1080 cells; fastest migrating forms of Rb
T3 sequence (looked up): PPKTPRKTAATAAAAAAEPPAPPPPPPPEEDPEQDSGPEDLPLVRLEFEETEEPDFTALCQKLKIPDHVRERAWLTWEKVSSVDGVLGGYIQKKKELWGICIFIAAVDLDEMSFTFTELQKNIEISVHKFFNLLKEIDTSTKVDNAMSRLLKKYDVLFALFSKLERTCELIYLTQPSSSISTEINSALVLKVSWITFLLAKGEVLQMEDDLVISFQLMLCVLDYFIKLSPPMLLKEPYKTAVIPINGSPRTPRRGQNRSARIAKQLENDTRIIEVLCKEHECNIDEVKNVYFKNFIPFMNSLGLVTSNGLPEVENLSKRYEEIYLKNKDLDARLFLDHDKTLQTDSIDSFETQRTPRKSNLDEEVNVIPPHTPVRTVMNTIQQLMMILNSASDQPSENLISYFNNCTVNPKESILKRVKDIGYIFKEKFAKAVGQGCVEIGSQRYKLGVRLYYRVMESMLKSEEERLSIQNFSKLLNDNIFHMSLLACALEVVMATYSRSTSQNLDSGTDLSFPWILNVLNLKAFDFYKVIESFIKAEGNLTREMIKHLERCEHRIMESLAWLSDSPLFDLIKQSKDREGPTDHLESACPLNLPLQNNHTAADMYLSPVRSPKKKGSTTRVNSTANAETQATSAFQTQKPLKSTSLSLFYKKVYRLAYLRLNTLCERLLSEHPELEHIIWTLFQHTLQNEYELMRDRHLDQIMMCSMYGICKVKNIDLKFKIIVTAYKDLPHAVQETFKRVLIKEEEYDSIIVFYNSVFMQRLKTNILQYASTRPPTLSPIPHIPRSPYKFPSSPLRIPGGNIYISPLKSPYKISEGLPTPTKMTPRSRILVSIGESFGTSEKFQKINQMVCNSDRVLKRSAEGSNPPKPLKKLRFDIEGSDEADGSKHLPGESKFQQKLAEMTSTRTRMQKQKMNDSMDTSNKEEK
Description: The cells were grown in DMEM supplemented with 100 fetal calf serum. Cells were lysed in ELB buffer (50 mM HEPES, pH 7.5, 250 mM NaCl, 0.1% NP-40) supplemented with 5 mM EDTA, 50 mM NaF, 1 mM Na orthovanadate, 1 mM of DTT, aprotinin, leupeptin, and PMSF. The lysate was cleared of cell debris by centrifugation at 12,000 rpm for 10 min in a microfuge.

[6] = biological target: T4, 35S-RIZ (1-575)^307-Gly (rat, UniProt Q63755 1-575, 35S label); assay: immunoprecipitation with anti-Rb antiserum, SDS-PAGE, autoradiography
T4 construct: In vitro transcribed/translated; also called glycine mutant; cr2 mutant
T4 sequence: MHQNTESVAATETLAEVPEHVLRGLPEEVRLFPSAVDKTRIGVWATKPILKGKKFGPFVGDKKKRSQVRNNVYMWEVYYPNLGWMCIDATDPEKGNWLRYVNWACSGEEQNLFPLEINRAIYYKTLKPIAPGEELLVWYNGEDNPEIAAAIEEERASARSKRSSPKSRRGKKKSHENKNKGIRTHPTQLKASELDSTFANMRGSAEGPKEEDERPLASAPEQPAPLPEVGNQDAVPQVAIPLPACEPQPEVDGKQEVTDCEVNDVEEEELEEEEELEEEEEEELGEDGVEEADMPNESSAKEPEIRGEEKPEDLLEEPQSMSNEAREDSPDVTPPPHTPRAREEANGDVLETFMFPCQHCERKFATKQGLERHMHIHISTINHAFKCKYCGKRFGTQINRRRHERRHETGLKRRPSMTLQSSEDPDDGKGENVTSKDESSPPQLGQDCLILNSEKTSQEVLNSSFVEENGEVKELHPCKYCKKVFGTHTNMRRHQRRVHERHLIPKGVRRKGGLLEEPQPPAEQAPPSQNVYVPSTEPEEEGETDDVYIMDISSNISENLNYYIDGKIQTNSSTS

## poly-L-lysine
[1]
  inhibition of binding of p56EERb to RIZ-expressing clones: maintained their reactivity

## KPEDLLEEPQS [ce1 peptide]
[2]
  inhibition of binding between anti-ce1 antibody and 35S-RIZ318: inhibited binding
[3]
  inhibition of binding between anti-ce1 antibody and 35S-E1A 12S (E1A243): inhibited binding

B1: purified rat RIZ (a.a. position 215-462) fused C-terminal to glutathionine S-transferase (GST) (other)
chain: PLASAPEQPAPLPEVGNQDAVPQVAIPLPACEPQPEVDGKQEVTDCEVNDVEEEELEEEEELEEEEEEELGEDGVEEADMPNESSAKEPEIRCEEKPEDLLEEPQSMSNEAREDSPDVTPPPHTPRAREEANGDVLETFMFPCQHCERKFATKQGLERHMHIHISTINHAFKCKYCGKRFGTQINRRRHERRHETGLKRRPSMTLQSSEDPDDGKGENVTSKDESSPPQLGQDCLILNSEKTSQEVLN
notes: not shown: glutathione S-transferase
[4]
  binding result: no binding
[5]
  binding result: binds

B2: 56 kD fragment of Rb produced by bacterial expression from p56Rb plasmid (other, UniProt P06400 379-928, looked up)
chain: T1 sequence (P06400 379-928)
notes: range 379-928; Expressed in E. coli; also called 56 kD Rb
[6]
  binding result: no binding (tested: 33 nM Rb)
